The target of this assay is GST-Rac1A, active (GTPγs-bound) (Dictyostelium) (UniProt P34144). Briefly: pull-down.

Our source for the immunoblot quantification of binding (%) values is publication doi:10.1101/602425.

In the case of “GFP-WASP (wild type Dictyostelium WASP) (natural protein)”, the immunoblot quantification of binding (%) turned out to be 1.9%.
